From publication PMC2996049 (Structure (London, England : 1993), 2010)

Target: the molecule itself
Experiment: SEC

B1: Full-length His6-tagged NrpR from Methanococcus maripaludis (MmNrpR) (natural protein, UniProt Q6LZL7 1-536, looked up)
chain: MDSNIDVEILSILSEASAPVGAKIIADSLKDRGYDIGERAVRYHLKVLDENSLTKKLGYSGREITEKGIEELEKANISFRIGSVFSQVIEKLYLSDFPSKVLINTAKFEGDYKTIKEMVLRSFEAGYSVGDYLNIKKKGNTVSVETLCSITFDNFLLKNGIIPTPEYGGIVKFEDYEPVNFEGVIDFKSSSIDPLVAFIMQGKTDVIGVIENGEGLVPANFRVIPKSSEKQFETILKKDMLNSVLAYGTENVLGMNLNPEQIGVVLVGGLTPLCVPHESGYTADISAATQLKDISSMEKKTKGFLEAKKKKGKFKVTPVLSKMLSKMQTINYDIEDKKGNVVVNTAKIPIEYKEEAINALKDSYENKLAISDRLKVECDDKFLNAYTICSLTVDGVFLKNKIPVIPYYGGILEVKADKKRFIEAIDYEGTSLDPHEVFFNKADGKNYILAGIRKVPMSASEKLIELNEKLGWNSIIEIGRPNNDICGVRVEKCMFGITTIGGTNPFANIRKNNIPVEMKTLHKSIDYSELTHYDDI
- stoichiometry N: 2
